In patent publication US20250155449A1:

The substances below were run against biotinylated IgG from human serum (Rockland Immunochemicals) (human) (assay: BLI (Octet), equilibrium titration of soluble analyte on biotinylated hIgG on streptavidin tips).

Sequence of Ab+Inv LC25 (HP6017 with invertase fused to the C-terminus of the light chain by a (G4S)5 linker) (heavy): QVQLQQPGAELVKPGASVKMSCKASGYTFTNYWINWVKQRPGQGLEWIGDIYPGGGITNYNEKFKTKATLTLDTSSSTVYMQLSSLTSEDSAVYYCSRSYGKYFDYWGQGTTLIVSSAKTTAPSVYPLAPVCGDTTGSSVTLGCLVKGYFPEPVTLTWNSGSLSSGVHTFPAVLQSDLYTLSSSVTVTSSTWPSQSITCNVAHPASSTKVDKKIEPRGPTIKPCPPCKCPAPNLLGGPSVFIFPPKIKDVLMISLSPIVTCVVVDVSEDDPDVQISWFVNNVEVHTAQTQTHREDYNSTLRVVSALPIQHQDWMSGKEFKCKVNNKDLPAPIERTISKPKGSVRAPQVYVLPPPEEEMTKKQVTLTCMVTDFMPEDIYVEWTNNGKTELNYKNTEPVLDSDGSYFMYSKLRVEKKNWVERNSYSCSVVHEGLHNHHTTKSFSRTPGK
Sequence of Ab+Inv LC25 (HP6017 with invertase fused to the C-terminus of the light chain by a (G4S)5 linker) (light): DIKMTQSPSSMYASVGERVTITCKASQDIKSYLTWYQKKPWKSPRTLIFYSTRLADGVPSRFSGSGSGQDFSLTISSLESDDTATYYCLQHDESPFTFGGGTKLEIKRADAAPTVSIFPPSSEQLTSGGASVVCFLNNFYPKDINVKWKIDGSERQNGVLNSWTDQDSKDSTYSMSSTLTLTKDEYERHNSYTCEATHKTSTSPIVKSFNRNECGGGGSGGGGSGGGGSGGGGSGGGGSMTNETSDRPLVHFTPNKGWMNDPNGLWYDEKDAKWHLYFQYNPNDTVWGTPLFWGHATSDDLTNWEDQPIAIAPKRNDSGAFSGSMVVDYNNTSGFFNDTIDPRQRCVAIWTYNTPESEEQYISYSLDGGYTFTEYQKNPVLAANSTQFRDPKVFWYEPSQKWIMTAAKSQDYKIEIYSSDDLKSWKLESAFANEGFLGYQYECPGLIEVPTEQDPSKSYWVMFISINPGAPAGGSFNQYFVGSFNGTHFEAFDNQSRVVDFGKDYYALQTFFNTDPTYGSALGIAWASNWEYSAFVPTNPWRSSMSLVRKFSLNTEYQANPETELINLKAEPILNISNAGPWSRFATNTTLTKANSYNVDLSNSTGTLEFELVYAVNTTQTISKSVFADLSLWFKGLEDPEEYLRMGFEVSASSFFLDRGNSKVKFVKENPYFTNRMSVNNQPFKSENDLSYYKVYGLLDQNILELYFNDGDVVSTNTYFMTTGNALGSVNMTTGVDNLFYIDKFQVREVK
Sequence of recombinant antibody HP6017 (anti-human IgG, mouse IgG2a kappa) (light): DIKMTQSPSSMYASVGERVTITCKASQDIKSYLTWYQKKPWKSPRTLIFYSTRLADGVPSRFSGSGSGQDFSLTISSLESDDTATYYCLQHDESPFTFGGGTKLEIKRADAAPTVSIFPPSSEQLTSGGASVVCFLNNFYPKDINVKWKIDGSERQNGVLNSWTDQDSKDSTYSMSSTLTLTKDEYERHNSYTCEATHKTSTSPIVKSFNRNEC
Sequence of Ab+Inv LC15 (HP6017 with invertase fused to the C-terminus of the light chain by a (G4S)3 linker) (light): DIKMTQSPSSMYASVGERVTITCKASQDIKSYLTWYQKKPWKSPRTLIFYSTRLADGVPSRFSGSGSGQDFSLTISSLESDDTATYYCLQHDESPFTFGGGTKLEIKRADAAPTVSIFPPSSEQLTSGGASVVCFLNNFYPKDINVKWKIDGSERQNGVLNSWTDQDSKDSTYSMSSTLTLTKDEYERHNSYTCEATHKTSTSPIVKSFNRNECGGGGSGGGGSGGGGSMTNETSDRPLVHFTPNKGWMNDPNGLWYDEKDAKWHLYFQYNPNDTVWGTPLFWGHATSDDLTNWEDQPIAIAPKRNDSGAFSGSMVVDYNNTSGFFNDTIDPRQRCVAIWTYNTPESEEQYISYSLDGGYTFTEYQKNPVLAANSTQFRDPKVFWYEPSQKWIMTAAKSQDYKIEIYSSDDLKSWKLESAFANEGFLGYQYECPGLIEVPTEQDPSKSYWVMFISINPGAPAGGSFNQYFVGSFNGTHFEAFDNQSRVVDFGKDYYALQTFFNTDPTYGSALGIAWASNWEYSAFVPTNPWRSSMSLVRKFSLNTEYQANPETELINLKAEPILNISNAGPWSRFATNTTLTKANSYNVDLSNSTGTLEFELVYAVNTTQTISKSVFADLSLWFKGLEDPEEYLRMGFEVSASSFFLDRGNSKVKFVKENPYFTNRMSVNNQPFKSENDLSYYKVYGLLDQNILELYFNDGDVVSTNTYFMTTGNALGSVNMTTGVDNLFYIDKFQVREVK
Sequence of Ab+Inv HC27 (HP6017 with invertase fused to the C-terminus of the heavy chain by an AS(G4S)5 linker) (heavy): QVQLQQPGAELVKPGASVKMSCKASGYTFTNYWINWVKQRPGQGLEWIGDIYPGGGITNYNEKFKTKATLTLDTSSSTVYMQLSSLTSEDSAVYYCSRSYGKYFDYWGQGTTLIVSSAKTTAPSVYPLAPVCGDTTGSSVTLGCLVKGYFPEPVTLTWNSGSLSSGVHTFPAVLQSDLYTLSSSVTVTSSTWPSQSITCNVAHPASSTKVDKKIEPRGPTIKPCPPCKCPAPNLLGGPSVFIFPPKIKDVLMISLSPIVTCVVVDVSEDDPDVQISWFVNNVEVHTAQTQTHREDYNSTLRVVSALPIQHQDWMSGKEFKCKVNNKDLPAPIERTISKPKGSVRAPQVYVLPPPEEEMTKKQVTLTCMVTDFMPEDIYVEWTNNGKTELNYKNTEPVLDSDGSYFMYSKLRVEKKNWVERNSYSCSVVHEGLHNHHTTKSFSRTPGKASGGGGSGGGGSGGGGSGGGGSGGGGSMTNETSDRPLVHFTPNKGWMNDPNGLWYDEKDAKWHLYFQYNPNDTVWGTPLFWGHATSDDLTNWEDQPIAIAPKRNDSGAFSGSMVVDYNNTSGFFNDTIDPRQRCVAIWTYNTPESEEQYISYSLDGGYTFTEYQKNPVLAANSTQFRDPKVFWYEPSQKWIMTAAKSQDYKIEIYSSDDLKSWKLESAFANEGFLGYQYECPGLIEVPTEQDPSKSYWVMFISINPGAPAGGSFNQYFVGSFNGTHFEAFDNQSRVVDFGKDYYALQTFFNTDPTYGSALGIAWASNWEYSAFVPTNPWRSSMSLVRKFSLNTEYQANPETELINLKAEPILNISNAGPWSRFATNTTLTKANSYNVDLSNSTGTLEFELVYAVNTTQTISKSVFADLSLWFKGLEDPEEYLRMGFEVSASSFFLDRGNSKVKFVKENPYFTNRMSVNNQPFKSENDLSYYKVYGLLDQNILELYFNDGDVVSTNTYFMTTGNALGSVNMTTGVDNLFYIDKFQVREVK
Sequence of Ab+Inv HC17 (HP6017 with invertase fused to the C-terminus of the heavy chain by an AS(G4S)3 linker) (heavy): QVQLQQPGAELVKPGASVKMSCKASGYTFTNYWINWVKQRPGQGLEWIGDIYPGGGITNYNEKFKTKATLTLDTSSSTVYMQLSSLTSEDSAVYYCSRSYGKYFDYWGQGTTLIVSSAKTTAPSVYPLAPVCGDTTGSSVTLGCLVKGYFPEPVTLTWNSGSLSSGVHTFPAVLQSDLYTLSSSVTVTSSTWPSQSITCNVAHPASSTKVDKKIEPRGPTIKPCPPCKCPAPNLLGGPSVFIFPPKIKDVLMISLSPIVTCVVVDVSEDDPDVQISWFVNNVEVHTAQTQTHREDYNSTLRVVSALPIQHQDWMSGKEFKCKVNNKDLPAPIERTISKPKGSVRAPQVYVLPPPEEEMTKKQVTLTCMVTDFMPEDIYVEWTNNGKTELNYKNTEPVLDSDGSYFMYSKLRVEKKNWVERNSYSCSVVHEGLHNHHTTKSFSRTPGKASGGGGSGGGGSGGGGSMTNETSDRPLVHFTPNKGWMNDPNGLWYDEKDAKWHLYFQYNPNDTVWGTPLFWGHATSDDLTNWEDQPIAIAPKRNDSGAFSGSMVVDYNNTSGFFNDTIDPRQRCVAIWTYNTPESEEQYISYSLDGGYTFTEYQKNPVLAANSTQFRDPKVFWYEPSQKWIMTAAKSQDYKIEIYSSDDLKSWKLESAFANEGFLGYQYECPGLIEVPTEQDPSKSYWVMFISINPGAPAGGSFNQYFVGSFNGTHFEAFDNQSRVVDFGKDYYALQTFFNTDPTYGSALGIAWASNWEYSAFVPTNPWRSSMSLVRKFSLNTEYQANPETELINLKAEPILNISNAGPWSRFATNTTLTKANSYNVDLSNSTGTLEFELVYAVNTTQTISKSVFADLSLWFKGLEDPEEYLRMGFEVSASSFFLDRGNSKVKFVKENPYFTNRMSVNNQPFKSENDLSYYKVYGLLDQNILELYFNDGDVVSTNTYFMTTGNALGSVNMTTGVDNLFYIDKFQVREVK

| EC50 (read off the curve) | Substance |
| --- | --- |
| 30 nM | Ab+Inv HC27 (HP6017 with invertase fused to the C-terminus of the heavy chain by an AS(G4S)5 linker) |
| 20 nM | recombinant antibody HP6017 (anti-human IgG, mouse IgG2a kappa) |
| 20 nM | Ab+Inv HC17 (HP6017 with invertase fused to the C-terminus of the heavy chain by an AS(G4S)3 linker) |

| Substance | EC50 (read off the curve) |
| --- | --- |
| Ab+Inv LC15 (HP6017 with invertase fused to the C-terminus of the light chain by a (G4S)3 linker) | 20 nM |

What follows are substances tested against biotinylated IgG from human serum (Rockland Immunochemicals) (human) (assay: BLI, kinetic fit values (1:1 model), soluble sample on immobilized hIgG).

| Kd | koff | kon | Substance |
| --- | --- | --- | --- |
| < 0.001 nM | < 1e-07 s⁻¹ | 450000 M⁻¹ s⁻¹ | Ab+Inv HC27 (HP6017 with invertase fused to the C-terminus of the heavy chain by an AS(G4S)5 linker) |
| < 0.001 nM | < 1e-07 s⁻¹ | 490000 M⁻¹ s⁻¹ | recombinant antibody HP6017 (anti-human IgG, mouse IgG2a kappa) |
| < 0.001 nM | < 1e-07 s⁻¹ | 430000 M⁻¹ s⁻¹ | Ab+Inv HC17 (HP6017 with invertase fused to the C-terminus of the heavy chain by an AS(G4S)3 linker) |

| Substance | Kd | koff | kon |
| --- | --- | --- | --- |
| Ab+Inv LC15 (HP6017 with invertase fused to the C-terminus of the light chain by a (G4S)3 linker) | < 0.001 nM | < 1e-07 s⁻¹ | 1.46e+06 M⁻¹ s⁻¹ |
| Ab+Inv LC25 (HP6017 with invertase fused to the C-terminus of the light chain by a (G4S)5 linker) | < 0.001 nM | < 1e-07 s⁻¹ | 1.61e+06 M⁻¹ s⁻¹ |

Each substance was assayed against biotinylated IgG from human serum (Rockland Immunochemicals) (human) (assay: BLI, equilibrium KD, soluble sample on immobilized hIgG).

| Kd | Substance |
| --- | --- |
| 25 nM | Ab+Inv HC27 (HP6017 with invertase fused to the C-terminus of the heavy chain by an AS(G4S)5 linker) |
| 18 nM | recombinant antibody HP6017 (anti-human IgG, mouse IgG2a kappa) |
| 21 nM | Ab+Inv HC17 (HP6017 with invertase fused to the C-terminus of the heavy chain by an AS(G4S)3 linker) |

| Substance | Kd |
| --- | --- |
| Ab+Inv LC15 (HP6017 with invertase fused to the C-terminus of the light chain by a (G4S)3 linker) | 16 nM |
| Ab+Inv LC25 (HP6017 with invertase fused to the C-terminus of the light chain by a (G4S)5 linker) | 17 nM |
